To fix the notation:
B1: myc-tagged Gα12 Gln^229Leu (myc-Gα12^QL) [not stated] / GST fusion of protein phosphatase-5 [not stated] (parent)
chain 1: MSGVVRTLSRCLLPAEAGARERRAGAARDAEREARRRSRDIDALLARERRAVRRLVKILLLGAGESGKSTFLKQMRIIHGREFDQKALLEFRDTIFDNILKGSRVLVDARDKLGIPWQHSENEKHGMFLMAFENKAGLPVEPATFQLYVPALSALWRDSGIREAFSRRSEFQLGESVKYFLDNLDRIGQLNYFPSKQDILLARKATKGIVEHDFVIKKIPFKMVDVGGLRSQRQKWFQCFDGITSILFMVSSSEYDQVLMEDRRTNRLVESMNIFETIVNNKLFFNVSIILFLNKMDLLVEKVKSVSIKKHFPDFKGDPHRLEDVQRYLVQCFDRKRRNRSKPLFHHFTTAIDTENIRFVFHAVKDTILQENLKDIMLQ
chain 2: MAMAEGERTECAEPPRDEPPADGALKRAEELKTQANDYFKAKDYENAIKFYSQAIELNPSNAIYYGNRSLAYLRTECYGYALGDATRAIELDKKYIKGYYRRAASNMALGKFRAALRDYETVVKVKPHDKDAKMKYQECNKIVKQKAFERAIAGDEHKRSVVDSLDIESMTIEDEYSGPKLEDGKVTISFMKELMQWYKDQKKLHRKCAYQILVQVKEVLSKLSTLVETTLKETEKITVCGDTHGQFYDLLNIFELNGLPSETNPYIFNGDFVDRGSFSVEVILTLFGFKLLYPDHFHLLRGNHETDNMNQIYGFEGEVKAKYTAQMYELFSEVFEWLPLAQCINGKVLIMHGGLFSEDGVTLDDIRKIERNRQPPDSGPMCDLLWSDPQPQNGRSISKRGVSCQFGPDVTKAFLEENNLDYIIRSHEVKAEGYEVAHGGRCVTVFSAPNYCDQMGNKASYIHLQGSDLRPQFHQFTAVPHPNVKPMAYANTLLQLGMM

The variants in this assay derive from B1. Briefly: GST pull-down (co-precipitation), immunoblot pulldown:load ratio. As to conditions: with GST fusion of protein phosphatase-5; grade: ++; mean of two or more trials; parent: 100. Background: In western blotting, separated proteins are transferred to a membrane and probed.
chain 1 MSGVVRTLSRCLLPAEAGARERRAGAARDAEREARRRSRDIDALLARERRANAAIRSILLLGAGESGKSTFLKQMRIIHGREFDQKALLEFRDTIFDNILKGSRVLVDARDKLGIPWQHSENEKHGMFLMAFENKAGLPVEPATFQLYVPALSALWRDSGIREAFSRRSEFQLGESVKYFLDNLDRIGQLNYFPSKQDILLARKATKGIVEHDFVIKKIPFKMVDVGGLRSQRQKWFQCFDGITSILFMVSSSEYDQVLMEDRRTNRLVESMNIFETIVNNKLFFNVSIILFLNKMDLLVEKVKSVSIKKHFPDFKGDPHRLEDVQRYLVQCFDRKRRNRSKPLFHHFTTAIDTENIRFVFHAVKDTILQENLKDIMLQ [chain 1 V52N R53A R54A L55I V56R K57S]: the percent of parent (% of myc-Gα12QL pulldown:load ratio) is greater than 60.
Regarding chain 1 MSGVVRTLSRCLLPAEAGARERRAGAARDAEREARRRSRDIDALLARERRAVRRLVKILLLGAGESGKSTFLKQMRIIHGREFDQKALLEFRDTIFDNILKGSRVLVDARDKLGIPWQHSENEKHGMFLMAFENKAGLPVEPATFQLYVPALSALWRDSGIREAFSRRSEFQLGESVKYFLDNLDRIGQLNYFPSKQDILLARKATKGIVEHDFVIKKIPFKMVDVGGLRSQRQKWFQCFDGITSILFMVSSSEYDQVLMEDRRTNRLVESMNIFETIVNNKLFFNVSIILFLNKMDLLVEKVKSVSIKKHFPDFKGDPHRLEDVQRYLVQCFDRKRRNRSKPLFHHFTTANAAIRSRFVFHAVKDTILQENLKDIMLQ [chain 1 I352N D353A T354A E355I N356R I357S], the percent of parent (% of myc-Gα12QL pulldown:load ratio) is greater than 60.
Next, chain 1 MSGVVRTLSRCLLPAEAGARERRAGAARDAEREARRRSRDIDALLARERRAVRRLVKILLLGAGESGKSTFLKQMRIIHGREFDQKALLEFRDTIFDNILKGSRVLVDARDKLGIPWQHSENEKHGMFLMAFENKAGLPVEPATFQLYVPALSALWRDSGIREAFSRRSEFQLGESVKYFLDNLDRIGQLNYFPSKQDILLARKATKGIVEHDFVIKKIPFKMVDVGGLRSQRQKWFQCFDGITSILFMVSSSEYDQVLMEDRRTNRLVESMNIFETIVNNKLFFNVSIILFLNKMDLLVEKVKSVSIKKHFPDFKGDPHRLEDVQRYLVQCFDRKRRNRSKPLFNAAIRSIDTENIRFVFHAVKDTILQENLKDIMLQ [chain 1 H346N H347A F348A T349I T350R A351S]: greater than 60.
Regarding chain 1 MSGVVRTLSRCLLPAEAGARERRAGAARDAEREARRRSRDIDALLARERRAVRRLVKILLLGAGESGKSTFLKQMRIIHGREFDQKALLEFRDTIFDNILKGSRVLVDARDKLGIPWQHSENEKHGMFLMAFENKAGLPVEPATFQLYVPALSALWRDSGIREAFSRRSEFQLGESVKYFLDNLDRIGQLNYFPSKQDILLARKATKGIVEHDFVIKKIPFKMVDVGGLRSQRQKWFQCFDGITSILFMVSSSEYDQVLMEDRRTNRLVESMNIFETIVNNKLFFNVSIILFLNKMDLLVEKVKSVSIKKHFPDFKGDPHRLEDVQRYLVQCFDRKRRNRSKPLFHHFTTAIDTENINAAIRSVKDTILQENLKDIMLQ [chain 1 R358N F359A V360A F361I H362R A363S], the percent of parent (% of myc-Gα12QL pulldown:load ratio) is greater than 60.
With chain 1 MSGVVRTLSRCLLPAEAGARERRAGAANAAIRSARRRSRDIDALLARERRAVRRLVKILLLGAGESGKSTFLKQMRIIHGREFDQKALLEFRDTIFDNILKGSRVLVDARDKLGIPWQHSENEKHGMFLMAFENKAGLPVEPATFQLYVPALSALWRDSGIREAFSRRSEFQLGESVKYFLDNLDRIGQLNYFPSKQDILLARKATKGIVEHDFVIKKIPFKMVDVGGLRSQRQKWFQCFDGITSILFMVSSSEYDQVLMEDRRTNRLVESMNIFETIVNNKLFFNVSIILFLNKMDLLVEKVKSVSIKKHFPDFKGDPHRLEDVQRYLVQCFDRKRRNRSKPLFHHFTTAIDTENIRFVFHAVKDTILQENLKDIMLQ [chain 1 R28N D29A E31I E33S] the figure was greater than 60; with chain 1 MSGVVRTLSRCLLPAEAGARERRAGAARDAEREARRRSRDIDALLARERRAVRRLVKILLLGAGESGKSTFLKQMRIIHGREFDQKALLEFRDTIFDNILKGSRVLVDARDKLGIPWQHSENEKHGMFLMAFENKAGLPVEPATFQLYVPALSALWRDSGIREAFSRRSEFQLGESVKYFLDNLDRIGQLNYFPSKQDILLARKATKGIVEHDFVIKKIPFKMVDVGGLRSQRQKWFQCFDGITSILFMVSSSEYDQVLMEDRRTNRLVESMNIFETIVNNKLFFNVSIILFLNKMDLLVEKVKSVSIKKHFPDFNAAIRSLEDVQRYLVQCFDRKRRNRSKPLFHHFTTAIDTENIRFVFHAVKDTILQENLKDIMLQ [chain 1 K316N G317A D318A P319I H320R R321S], greater than 60.
Consider chain 1 MSGVVRTLSRCLLPAEAGARERRAGAARDAEREARRRSRDIDALLARERRAVRRLVKILLLGAGESGKSTFLKQMRIIHGREFDQKALLEFRDTIFDNILKGSRVLVDARDKLGIPWQHSENEKHGMFLMAFENKAGLPVEPATFQLYVPALSALWRDSGIREAFSRRSEFQLGESVKYFLDNLDRIGQLNYFPSKQDILLARKATKGIVEHDFVIKKIPFKMVDVGGLRSQRQKWFQCFDGITSILFMVSSSEYDQVLMEDRRTNRLVESMNIFETIVNNKLFFNVSIILFLNKMDLLVEKVKSVSIKKHFPDFKGDPHRLEDVQRYLVQCFDRKRRNNAAIRSHHFTTAIDTENIRFVFHAVKDTILQENLKDIMLQ [chain 1 R340N S341A K342A P343I L344R F345S], for which the percent of parent (% of myc-Gα12QL pulldown:load ratio) is greater than 60.
